The values that follow are results of earlier work, collected in PMC4193333.

The target in the data set is BK channel alpha subunit (UniProt Q12791).
Sequence of UniProt Q12791 (Q12791 whole entry): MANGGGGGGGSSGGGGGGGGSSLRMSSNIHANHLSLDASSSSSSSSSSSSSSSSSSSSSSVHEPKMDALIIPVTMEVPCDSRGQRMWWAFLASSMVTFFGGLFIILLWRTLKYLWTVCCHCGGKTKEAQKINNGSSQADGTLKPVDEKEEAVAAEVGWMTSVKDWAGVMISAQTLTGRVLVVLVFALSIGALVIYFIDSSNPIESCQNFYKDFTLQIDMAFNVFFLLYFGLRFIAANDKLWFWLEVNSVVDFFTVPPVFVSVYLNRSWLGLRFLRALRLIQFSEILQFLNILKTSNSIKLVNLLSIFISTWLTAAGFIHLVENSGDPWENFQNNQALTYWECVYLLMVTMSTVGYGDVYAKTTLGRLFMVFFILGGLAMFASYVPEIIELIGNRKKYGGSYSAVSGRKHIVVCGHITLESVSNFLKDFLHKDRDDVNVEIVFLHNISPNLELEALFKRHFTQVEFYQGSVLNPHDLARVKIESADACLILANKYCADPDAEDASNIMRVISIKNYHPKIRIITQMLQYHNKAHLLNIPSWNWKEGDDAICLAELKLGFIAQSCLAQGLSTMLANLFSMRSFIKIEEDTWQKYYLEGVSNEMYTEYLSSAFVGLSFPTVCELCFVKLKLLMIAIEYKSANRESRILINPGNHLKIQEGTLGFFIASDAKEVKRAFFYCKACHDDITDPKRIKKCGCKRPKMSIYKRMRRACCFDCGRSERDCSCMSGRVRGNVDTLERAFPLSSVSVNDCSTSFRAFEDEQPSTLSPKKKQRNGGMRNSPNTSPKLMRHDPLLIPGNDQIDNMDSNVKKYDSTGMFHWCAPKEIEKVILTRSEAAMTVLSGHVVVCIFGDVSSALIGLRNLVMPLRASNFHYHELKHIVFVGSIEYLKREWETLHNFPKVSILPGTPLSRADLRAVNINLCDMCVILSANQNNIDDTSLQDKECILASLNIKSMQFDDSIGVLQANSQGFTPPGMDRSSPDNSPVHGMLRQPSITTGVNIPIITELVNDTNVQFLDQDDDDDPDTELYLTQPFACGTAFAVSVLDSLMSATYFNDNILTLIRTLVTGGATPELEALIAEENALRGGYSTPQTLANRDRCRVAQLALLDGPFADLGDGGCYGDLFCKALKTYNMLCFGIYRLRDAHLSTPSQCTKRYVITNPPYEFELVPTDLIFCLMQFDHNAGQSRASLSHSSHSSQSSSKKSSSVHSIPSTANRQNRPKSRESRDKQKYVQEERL

Consider “Iberiotoxin (IbTX) (from UniProt P24663)”, for which the Kd (commonly the concentration at which binding is half-saturated) was 1.5 nM.
